In the oligonucleotide strings, read from the 5' end, every base follows the letter of its sugar. An asterisk marks phosphorothioate; unmarked linkages are phosphodiester. Other units and linkages are bracketed, terminal groups are in braces. A string of capitals states the bases alone. m = 2'-O-methyl; r = 2'-OH (RNA)
How the values were obtained:
plasma kallikrein = assay: Plasma kallikrein activity in cynomolgus monkeys; assay type: in vivo, cynomolgus monkey; conditions: n=3, 6 mpk
Experimental: (§1) Cynomolgus monkeys were treated in cohorts of n=3. This study was conducted with LNP formulations according to Example 1. […]. Animals were dosed at 1.5, 3, or 6 mg per kg doses based on total RNA cargo. Indel formation (percent editing) was measured by NGS. Total kallikrein activity and plasma kallikrein protein level were measured as described above. […]

[1] = tested on: plasma kallikrein protein; assay: Plasma kallikrein protein level in cynomolgus monkeys; assay type: in vivo, cynomolgus monkey; conditions: n=3
Experimental: as §1

B1: G013901: cynomolgus specific KLKB1 guide RNA (SEQ ID NO: 409); dosed as LNP formulation with Cas9 mRNA (nucleic acid)
guide: mG*mG*mA*rUrUrArCrArUrArUrGrGrGrArCrArCrArArGrUrUrUrUrArGrAmGmCmUmAmGmAmAmAmUmAmGmCrArArGrUrUrArArArArUrArArGrGrCrUrArGrUrCrCrGrUrUrArUrCrAmAmCmUmUmGmAmAmAmAmAmGmUmGmGmCmAmCmCmGmAmGmUmCmGmGmUmGmCmU*mU*mU*mU
B1 was tested, and the “Kallikrein Activity (% of basal activity), Mean” value (plasma kallikrein; Day 347) was 2.9 % of basal activity, the “Kallikrein Activity (% of basal activity), Mean” value (plasma kallikrein; Day 365) was 3.4 % of basal activity and the “Plasma Kallikrein Protein Levels (% of basal level), Mean” value ([1]; 1.5 mpk, Day 14) was 28.8 % of basal level. The “Plasma Kallikrein Protein Levels (% of basal level), Mean” value ([1]; 1.5 mpk, Day 28) was 32.7 % of basal level, the “Plasma Kallikrein Protein Levels (% of basal level), Mean” value ([1]; 1.5 mpk, Day 42) was 31.5 % of basal level and the “Plasma Kallikrein Protein Levels (% of basal level), Mean” value ([1]; 1.5 mpk, Day 56) was 30.1 % of basal level. For the same molecule, the “Plasma Kallikrein Protein Levels (% of basal level), Mean” value ([1]; 1.5 mpk, Day 70) was 29.8 % of basal level, the “Plasma Kallikrein Protein Levels (% of basal level), Mean” value ([1]; 1.5 mpk, Day 84) was 38.7 % of basal level and the “Plasma Kallikrein Protein Levels (% of basal level), Mean” value ([1]; 1.5 mpk, Day 105) was 47 % of basal level. For the same molecule, the “Plasma Kallikrein Protein Levels (% of basal level), Mean” value ([1]; 1.5 mpk, Day 119) was 31.6 % of basal level, the “Plasma Kallikrein Protein Levels (% of basal level), Mean” value ([1]; 1.5 mpk, Day 147) was 32.1 % of basal level and the “Plasma Kallikrein Protein Levels (% of basal level), Mean” value ([1]; 1.5 mpk, Day 161) was 35.8 % of basal level. For the same molecule, the “Plasma Kallikrein Protein Levels (% of basal level), Mean” value ([1]; 1.5 mpk, Day 180) was 33.8 % of basal level, the “Plasma Kallikrein Protein Levels (% of basal level), Mean” value ([1]; 1.5 mpk, Day 238) was 27.4 % of basal level and the “Plasma Kallikrein Protein Levels (% of basal level), Mean” value ([1]; 1.5 mpk, Day 252) was 27.9 % of basal level. For the same molecule, the “Plasma Kallikrein Protein Levels (% of basal level), Mean” value ([1]; 1.5 mpk, Day 266) was 28.7 % of basal level, the “Plasma Kallikrein Protein Levels (% of basal level), Mean” value ([1]; 1.5 mpk, Day 280) was 33.7 % of basal level and the “Plasma Kallikrein Protein Levels (% of basal level), Mean” value ([1]; 1.5 mpk, Day 294) was 30.4 % of basal level. The “Plasma Kallikrein Protein Levels (% of basal level), Mean” value ([1]; 1.5 mpk, Day 308) was 20.6 % of basal level, the “Plasma Kallikrein Protein Levels (% of basal level), Mean” value ([1]; 1.5 mpk, Day 326) was 29.7 % of basal level and the “Plasma Kallikrein Protein Levels (% of basal level), Mean” value ([1]; 1.5 mpk, Day 333) was 30.9 % of basal level. The “Plasma Kallikrein Protein Levels (% of basal level), Mean” value ([1]; 1.5 mpk, Day 347) was 26 % of basal level, the “Plasma Kallikrein Protein Levels (% of basal level), Mean” value ([1]; 1.5 mpk, Day 365) was 22.7 % of basal level and the “Plasma Kallikrein Protein Levels (% of basal level), Mean” value ([1]; 3 mpk, Day 14) was 27.1 % of basal level. For the same molecule, the “Plasma Kallikrein Protein Levels (% of basal level), Mean” value ([1]; 3 mpk, Day 28) was 16.9 % of basal level, the “Plasma Kallikrein Protein Levels (% of basal level), Mean” value ([1]; 3 mpk, Day 42) was 16 % of basal level and the “Plasma Kallikrein Protein Levels (% of basal level), Mean” value ([1]; 3 mpk, Day 56) was 15.4 % of basal level. The “Plasma Kallikrein Protein Levels (% of basal level), Mean” value ([1]; 3 mpk, Day 70) was 15.4 % of basal level, the “Plasma Kallikrein Protein Levels (% of basal level), Mean” value ([1]; 3 mpk, Day 84) was 17.1 % of basal level and the “Plasma Kallikrein Protein Levels (% of basal level), Mean” value ([1]; 3 mpk, Day 105) was 22.3 % of basal level. The “Plasma Kallikrein Protein Levels (% of basal level), Mean” value ([1]; 3 mpk, Day 119) was 18.1 % of basal level, the “Plasma Kallikrein Protein Levels (% of basal level), Mean” value ([1]; 3 mpk, Day 147) was 18.3 % of basal level and the “Plasma Kallikrein Protein Levels (% of basal level), Mean” value ([1]; 3 mpk, Day 161) was 7.5 % of basal level. The “Plasma Kallikrein Protein Levels (% of basal level), Mean” value ([1]; 3 mpk, Day 180) was 18 % of basal level, the “Plasma Kallikrein Protein Levels (% of basal level), Mean” value ([1]; 3 mpk, Day 238) was 16.4 % of basal level and the “Plasma Kallikrein Protein Levels (% of basal level), Mean” value ([1]; 3 mpk, Day 252) was 15.6 % of basal level. For the same molecule, the “Plasma Kallikrein Protein Levels (% of basal level), Mean” value ([1]; 3 mpk, Day 266) was 21.8 % of basal level, the “Plasma Kallikrein Protein Levels (% of basal level), Mean” value ([1]; 3 mpk, Day 280) was 24.6 % of basal level and the “Plasma Kallikrein Protein Levels (% of basal level), Mean” value ([1]; 3 mpk, Day 294) was 24.6 % of basal level. For the same molecule, the “Plasma Kallikrein Protein Levels (% of basal level), Mean” value ([1]; 3 mpk, Day 308) was 27.6 % of basal level, the “Plasma Kallikrein Protein Levels (% of basal level), Mean” value ([1]; 3 mpk, Day 326) was 23.8 % of basal level and the “Plasma Kallikrein Protein Levels (% of basal level), Mean” value ([1]; 3 mpk, Day 333) was 25.3 % of basal level. For the same molecule, the “Plasma Kallikrein Protein Levels (% of basal level), Mean” value ([1]; 3 mpk, Day 347) was 22.1 % of basal level, the “Plasma Kallikrein Protein Levels (% of basal level), Mean” value ([1]; 3 mpk, Day 365) was 11.4 % of basal level and the “Plasma Kallikrein Protein Levels (% of basal level), Mean” value ([1]; 6 mpk, Day 14) was 13.7 % of basal level. The “Plasma Kallikrein Protein Levels (% of basal level), Mean” value ([1]; 6 mpk, Day 28) was 6.6 % of basal level, the “Plasma Kallikrein Protein Levels (% of basal level), Mean” value ([1]; 6 mpk, Day 42) was 6.3 % of basal level and the “Plasma Kallikrein Protein Levels (% of basal level), Mean” value ([1]; 6 mpk, Day 56) was 5.8 % of basal level. The “Plasma Kallikrein Protein Levels (% of basal level), Mean” value ([1]; 6 mpk, Day 70) was 5.8 % of basal level, the “Plasma Kallikrein Protein Levels (% of basal level), Mean” value ([1]; 6 mpk, Day 84) was 6.7 % of basal level and the “Plasma Kallikrein Protein Levels (% of basal level), Mean” value ([1]; 6 mpk, Day 105) was 7.6 % of basal level. For the same molecule, the “Plasma Kallikrein Protein Levels (% of basal level), Mean” value ([1]; 6 mpk, Day 119) was 6.4 % of basal level, the “Plasma Kallikrein Protein Levels (% of basal level), Mean” value ([1]; 6 mpk, Day 147) was 6.7 % of basal level and the “Plasma Kallikrein Protein Levels (% of basal level), Mean” value ([1]; 6 mpk, Day 161) was 7.4 % of basal level. The “Plasma Kallikrein Protein Levels (% of basal level), Mean” value ([1]; 6 mpk, Day 180) was 2.9 % of basal level, the “Plasma Kallikrein Protein Levels (% of basal level), Mean” value ([1]; 6 mpk, Day 238) was 3.7 % of basal level and the “Plasma Kallikrein Protein Levels (% of basal level), Mean” value ([1]; 6 mpk, Day 252) was 3.9 % of basal level. For the same molecule, the “Plasma Kallikrein Protein Levels (% of basal level), Mean” value ([1]; 6 mpk, Day 266) was 3.7 % of basal level, the “Plasma Kallikrein Protein Levels (% of basal level), Mean” value ([1]; 6 mpk, Day 280) was 6.3 % of basal level and the “Plasma Kallikrein Protein Levels (% of basal level), Mean” value ([1]; 6 mpk, Day 294) was 7.4 % of basal level. The “Plasma Kallikrein Protein Levels (% of basal level), Mean” value ([1]; 6 mpk, Day 308) was 6.2 % of basal level, the “Plasma Kallikrein Protein Levels (% of basal level), Mean” value ([1]; 6 mpk, Day 326) was 8 % of basal level and the “Plasma Kallikrein Protein Levels (% of basal level), Mean” value ([1]; 6 mpk, Day 333) was 7.8 % of basal level. For the same molecule, the “Plasma Kallikrein Protein Levels (% of basal level), Mean” value ([1]; 6 mpk, Day 347) was 7.3 % of basal level and the “Plasma Kallikrein Protein Levels (% of basal level), Mean” value ([1]; 6 mpk, Day 365) was 4.3 % of basal level.

Source: patent publication US20260240959A1, “METHODS FOR IN VIVO EDITING OF KLKB1” (INTELLIA THERAPEUTICS, INC., priority 2022, published 2026)
